Patent publication US11504441B2, “Radiolabeled compounds targeting the prostate-specific membrane antigen” (PROVINCIAL HEALTH SERVICES AUTHORITY, priority 2019, dated 2022)

Assay: in vivo
Parameters: species or system mice
Settings: male, NODSCID 1L2RγKO, mouse, iv, total radioactivity

Q: Which tissue uptake at 1 h (Adrenal glands uptake) does the source give for `O=C(O)CCC[C@H](NC(=O)N[C@@H](CCCCNC(=O)[C@H](Cc1c2ccccc2cc2ccccc12)NC(=O)[C@H]1CC[C@H](CNC(=O)CN2CCN(CC(=O)O)CCN(CC(=O)O)CCN(CC(=O)O)CC2)CC1)C(=O)O)C(=O)O` [177Lu-HTK03149, metal not drawn] here?
A: Its tissue uptake at 1 h is 0.35 ± 0.07 %ID/g.

Q: What about the tissue uptake at 4 h (Adrenal glands uptake) of the same molecule?
A: The tissue uptake at 4 h was 0.08 ± 0.01 %ID/g.

Q: What about the tissue uptake at 24 h (Adrenal glands uptake) of the same molecule?
A: Its tissue uptake at 24 h is 0.07 ± 0.02 %ID/g.

Q: And the tissue uptake at 72 h (Adrenal glands uptake)?
A: Its tissue uptake at 72 h is 0.12 ± 0.05 %ID/g.

Q: And the tissue uptake at 120 h (Adrenal glands uptake)?
A: Its tissue uptake at 120 h is 0.02 ± 0.03 %ID/g.

Q: What about the tissue uptake at 1 h (Blood uptake) of the same molecule?
A: Its tissue uptake at 1 h is 0.88 ± 0.07 %ID/g.

Q: And the tissue uptake at 4 h (Blood uptake)?
A: Its tissue uptake at 4 h is 0.17 ± 0.03 %ID/g.

Q: What about the tissue uptake at 24 h (Blood uptake) of the same molecule?
A: Its tissue uptake at 24 h is 0.12 ± 0.01 %ID/g.

Q: And the tissue uptake at 72 h (Blood uptake)?
A: Its tissue uptake at 72 h is 0.07 ± 0.02 %ID/g.

Q: What about the tissue uptake at 120 h (Blood uptake) of the same molecule?
A: Its tissue uptake at 120 h is 0.02 ± 0.01 %ID/g.

Q: What about the tissue uptake at 1 h (Bone uptake) of the same molecule?
A: Its tissue uptake at 1 h is 0.07 ± 0.02 %ID/g.

Q: And the tissue uptake at 4 h (Bone uptake)?
A: The tissue uptake at 4 h was 0.02 ± 0.01 %ID/g.

Q: And the tissue uptake at 24 h (Bone uptake)?
A: The tissue uptake at 24 h was 0.03 %ID/g.

Q: And the tissue uptake at 72 h (Bone uptake)?
A: Its tissue uptake at 72 h is 0.03 ± 0.01 %ID/g.

Q: And the tissue uptake at 120 h (Bone uptake)?
A: Its tissue uptake at 120 h is 0.01 ± 0.01 %ID/g.

Q: And the tissue uptake at 1 h (Brain uptake)?
A: Its tissue uptake at 1 h is 0.02 %ID/g.

Q: And the tissue uptake at 4 h (Brain uptake)?
A: The tissue uptake at 4 h was 0.01 %ID/g.

Q: And the tissue uptake at 24 h (Brain uptake)?
A: The tissue uptake at 24 h was 0.01 %ID/g.

Q: And the tissue uptake at 1 h (Fat uptake)?
A: Its tissue uptake at 1 h is 0.14 ± 0.05 %ID/g.

Q: What about the tissue uptake at 4 h (Fat uptake) of the same molecule?
A: The tissue uptake at 4 h was 0.02 %ID/g.

Q: What about the tissue uptake at 24 h (Fat uptake) of the same molecule?
A: Its tissue uptake at 24 h is 0.02 %ID/g.

Q: What about the tissue uptake at 72 h (Fat uptake) of the same molecule?
A: Its tissue uptake at 72 h is 0.04 ± 0.04 %ID/g.

Q: And the tissue uptake at 120 h (Fat uptake)?
A: The tissue uptake at 120 h was 0.01 ± 0.01 %ID/g.

Q: And the tissue uptake at 1 h (Heart uptake)?
A: The tissue uptake at 1 h was 0.28 ± 0.04 %ID/g.

Q: What about the tissue uptake at 4 h (Heart uptake) of the same molecule?
A: The tissue uptake at 4 h was 0.07 ± 0.01 %ID/g.

Q: And the tissue uptake at 24 h (Heart uptake)?
A: The tissue uptake at 24 h was 0.06 %ID/g.

Q: And the tissue uptake at 72 h (Heart uptake)?
A: Its tissue uptake at 72 h is 0.06 ± 0.01 %ID/g.

Q: What about the tissue uptake at 120 h (Heart uptake) of the same molecule?
A: Its tissue uptake at 120 h is 0.03 ± 0.01 %ID/g.

Q: What about the tissue uptake at 1 h (Intestine uptake) of the same molecule?
A: The tissue uptake at 1 h was 0.27 ± 0.06 %ID/g.

Q: What about the tissue uptake at 4 h (Intestine uptake) of the same molecule?
A: The tissue uptake at 4 h was 0.19 ± 0.07 %ID/g.

Q: And the tissue uptake at 24 h (Intestine uptake)?
A: The tissue uptake at 24 h was 0.09 ± 0.05 %ID/g.

Q: What about the tissue uptake at 72 h (Intestine uptake) of the same molecule?
A: The tissue uptake at 72 h was 0.09 ± 0.03 %ID/g.

Q: And the tissue uptake at 120 h (Intestine uptake)?
A: The tissue uptake at 120 h was 0.31 ± 0.48 %ID/g.

Q: What about the tissue uptake at 1 h (Kidneys uptake) of the same molecule?
A: The tissue uptake at 1 h was 7.67 ± 1.35 %ID/g.

Q: And the tissue uptake at 4 h (Kidneys uptake)?
A: Its tissue uptake at 4 h is 1.67 ± 0.38 %ID/g.

Q: What about the tissue uptake at 24 h (Kidneys uptake) of the same molecule?
A: The tissue uptake at 24 h was 0.6 ± 0.11 %ID/g.

Q: What about the tissue uptake at 72 h (Kidneys uptake) of the same molecule?
A: The tissue uptake at 72 h was 0.68 ± 0.39 %ID/g.

Q: And the tissue uptake at 120 h (Kidneys uptake)?
A: Its tissue uptake at 120 h is 0.28 ± 0.06 %ID/g.

Q: What about the tissue uptake at 1 h (Lacrimal uptake) of the same molecule?
A: The tissue uptake at 1 h was 0.02 ± 0.01 %ID/g.

Q: What about the tissue uptake at 4 h (Lacrimal uptake) of the same molecule?
A: The tissue uptake at 4 h was 0.03 ± 0.01 %ID/g.

Q: What about the tissue uptake at 72 h (Lacrimal uptake) of the same molecule?
A: Its tissue uptake at 72 h is 0.01 ± 0.01 %ID/g.

Q: What about the tissue uptake at 1 h (Liver uptake) of the same molecule?
A: The tissue uptake at 1 h was 0.26 ± 0.03 %ID/g.

Q: And the tissue uptake at 4 h (Liver uptake)?
A: The tissue uptake at 4 h was 0.11 ± 0.01 %ID/g.

Q: What about the tissue uptake at 24 h (Liver uptake) of the same molecule?
A: Its tissue uptake at 24 h is 0.1 ± 0.01 %ID/g.

Q: And the tissue uptake at 72 h (Liver uptake)?
A: The tissue uptake at 72 h was 0.13 ± 0.03 %ID/g.

Q: And the tissue uptake at 120 h (Liver uptake)?
A: Its tissue uptake at 120 h is 0.08 ± 0.04 %ID/g.

Q: What about the tissue uptake at 1 h (Lungs uptake) of the same molecule?
A: Its tissue uptake at 1 h is 0.72 ± 0.06 %ID/g.

Q: What about the tissue uptake at 4 h (Lungs uptake) of the same molecule?
A: Its tissue uptake at 4 h is 0.17 ± 0.01 %ID/g.

Q: What about the tissue uptake at 24 h (Lungs uptake) of the same molecule?
A: Its tissue uptake at 24 h is 0.12 ± 0.01 %ID/g.

Q: What about the tissue uptake at 72 h (Lungs uptake) of the same molecule?
A: The tissue uptake at 72 h was 0.11 ± 0.02 %ID/g.

Q: And the tissue uptake at 120 h (Lungs uptake)?
A: Its tissue uptake at 120 h is 0.09 ± 0.08 %ID/g.

Q: And the tissue uptake at 1 h (Muscle uptake)?
A: The tissue uptake at 1 h was 0.18 ± 0.14 %ID/g.

Q: What about the tissue uptake at 4 h (Muscle uptake) of the same molecule?
A: Its tissue uptake at 4 h is 0.02 ± 0.01 %ID/g.

Q: And the tissue uptake at 24 h (Muscle uptake)?
A: The tissue uptake at 24 h was 0.02 %ID/g.

Q: What about the tissue uptake at 72 h (Muscle uptake) of the same molecule?
A: The tissue uptake at 72 h was 0.02 %ID/g.

Q: And the tissue uptake at 120 h (Muscle uptake)?
A: Its tissue uptake at 120 h is 0.01 %ID/g.

Q: What about the tissue uptake at 1 h (Pancreas uptake) of the same molecule?
A: Its tissue uptake at 1 h is 0.17 ± 0.03 %ID/g.

Q: And the tissue uptake at 4 h (Pancreas uptake)?
A: Its tissue uptake at 4 h is 0.03 %ID/g.

Q: And the tissue uptake at 24 h (Pancreas uptake)?
A: The tissue uptake at 24 h was 0.03 %ID/g.

Q: What about the tissue uptake at 72 h (Pancreas uptake) of the same molecule?
A: Its tissue uptake at 72 h is 0.03 %ID/g.

Q: And the tissue uptake at 120 h (Pancreas uptake)?
A: The tissue uptake at 120 h was 0.02 ± 0.01 %ID/g.

Q: And the tissue uptake at 1 h (Salivary uptake)?
A: Its tissue uptake at 1 h is 0.23 ± 0.06 %ID/g.

Q: And the tissue uptake at 4 h (Salivary uptake)?
A: Its tissue uptake at 4 h is 0.05 ± 0.01 %ID/g.

Q: What about the tissue uptake at 24 h (Salivary uptake) of the same molecule?
A: Its tissue uptake at 24 h is 0.05 ± 0.01 %ID/g.

Q: What about the tissue uptake at 72 h (Salivary uptake) of the same molecule?
A: The tissue uptake at 72 h was 0.05 ± 0.02 %ID/g.

Q: And the tissue uptake at 120 h (Salivary uptake)?
A: The tissue uptake at 120 h was 0.03 ± 0.01 %ID/g.

Q: And the tissue uptake at 1 h (Seminal uptake)?
A: The tissue uptake at 1 h was 0.38 ± 0.47 %ID/g.

Q: What about the tissue uptake at 4 h (Seminal uptake) of the same molecule?
A: Its tissue uptake at 4 h is 0.04 ± 0.03 %ID/g.

Q: What about the tissue uptake at 24 h (Seminal uptake) of the same molecule?
A: Its tissue uptake at 24 h is 0.02 %ID/g.

Q: And the tissue uptake at 72 h (Seminal uptake)?
A: Its tissue uptake at 72 h is 0.03 ± 0.01 %ID/g.

Q: And the tissue uptake at 120 h (Seminal uptake)?
A: Its tissue uptake at 120 h is 0.01 %ID/g.

Q: And the tissue uptake at 1 h (Spleen uptake)?
A: Its tissue uptake at 1 h is 0.26 ± 0.05 %ID/g.

Q: What about the tissue uptake at 4 h (Spleen uptake) of the same molecule?
A: The tissue uptake at 4 h was 0.09 ± 0.02 %ID/g.

Q: And the tissue uptake at 24 h (Spleen uptake)?
A: The tissue uptake at 24 h was 0.09 ± 0.01 %ID/g.

Q: What about the tissue uptake at 72 h (Spleen uptake) of the same molecule?
A: The tissue uptake at 72 h was 0.14 ± 0.06 %ID/g.

Q: And the tissue uptake at 120 h (Spleen uptake)?
A: Its tissue uptake at 120 h is 0.13 ± 0.08 %ID/g.

Q: And the tissue uptake at 1 h (Stomach uptake)?
A: The tissue uptake at 1 h was 0.1 ± 0.02 %ID/g.

Q: What about the tissue uptake at 4 h (Stomach uptake) of the same molecule?
A: The tissue uptake at 4 h was 0.05 ± 0.02 %ID/g.

Q: What about the tissue uptake at 24 h (Stomach uptake) of the same molecule?
A: Its tissue uptake at 24 h is 0.13 ± 0.11 %ID/g.

Q: And the tissue uptake at 72 h (Stomach uptake)?
A: Its tissue uptake at 72 h is 0.14 ± 0.1 %ID/g.

Q: What about the tissue uptake at 120 h (Stomach uptake) of the same molecule?
A: The tissue uptake at 120 h was 0.24 ± 0.31 %ID/g.

Q: And the tissue uptake at 1 h (Tail uptake)?
A: The tissue uptake at 1 h was 0.52 ± 0.13 %ID/g.

Q: And the tissue uptake at 4 h (Tail uptake)?
A: Its tissue uptake at 4 h is 0.2 ± 0.14 %ID/g.

Q: What about the tissue uptake at 24 h (Tail uptake) of the same molecule?
A: Its tissue uptake at 24 h is 0.14 ± 0.14 %ID/g.

Q: And the tissue uptake at 72 h (Tail uptake)?
A: The tissue uptake at 72 h was 0.08 ± 0.02 %ID/g.

Q: What about the tissue uptake at 120 h (Tail uptake) of the same molecule?
A: Its tissue uptake at 120 h is 0.04 ± 0.01 %ID/g.

Q: What about the tissue uptake at 1 h (Testes uptake) of the same molecule?
A: Its tissue uptake at 1 h is 0.26 ± 0.02 %ID/g.

Q: And the tissue uptake at 4 h (Testes uptake)?
A: The tissue uptake at 4 h was 0.06 %ID/g.

Q: What about the tissue uptake at 24 h (Testes uptake) of the same molecule?
A: Its tissue uptake at 24 h is 0.05 %ID/g.

Q: And the tissue uptake at 72 h (Testes uptake)?
A: Its tissue uptake at 72 h is 0.05 ± 0.01 %ID/g.

Q: What about the tissue uptake at 120 h (Testes uptake) of the same molecule?
A: Its tissue uptake at 120 h is 0.03 ± 0.01 %ID/g.

Q: What about the tissue uptake at 1 h (Thyroid uptake) of the same molecule?
A: Its tissue uptake at 1 h is 0.27 ± 0.02 %ID/g.

Q: And the tissue uptake at 4 h (Thyroid uptake)?
A: The tissue uptake at 4 h was 0.07 ± 0.01 %ID/g.

Q: What about the tissue uptake at 24 h (Thyroid uptake) of the same molecule?
A: Its tissue uptake at 24 h is 0.06 %ID/g.

Q: And the tissue uptake at 72 h (Thyroid uptake)?
A: The tissue uptake at 72 h was 0.08 ± 0.01 %ID/g.

Q: And the tissue uptake at 120 h (Thyroid uptake)?
A: Its tissue uptake at 120 h is 0.04 ± 0.01 %ID/g.

Q: What about the tissue uptake at 1 h (Tumor uptake) of the same molecule?
A: Its tissue uptake at 1 h is 14 ± 2.16 %ID/g.

Q: What about the tissue uptake at 4 h (Tumor uptake) of the same molecule?
A: Its tissue uptake at 4 h is 20.9 ± 2.99 %ID/g.

Q: What about the tissue uptake at 24 h (Tumor uptake) of the same molecule?
A: Its tissue uptake at 24 h is 13.8 ± 2.88 %ID/g.

Q: What about the tissue uptake at 72 h (Tumor uptake) of the same molecule?
A: Its tissue uptake at 72 h is 17.1 ± 4.7 %ID/g.

Q: What about the tissue uptake at 120 h (Tumor uptake) of the same molecule?
A: Its tissue uptake at 120 h is 16.4 ± 11 %ID/g.
